Columns and labels:
FOS;JUN [1] = molecular target: T1, FOS;JUN (Homo sapiens?;Homo sapiens?, UniProt P01100;P05412 1-380;1-331, |); assay: EMSA; 75 nM each; unlabeled N1 also competes; 20 mM HEPES (pH not stated), 4 mM MgCl2, 20 mM KCl, 5 mM DTT, 1 mM EDTA, 100 ug/ml BSA, 4% glycerol, poly(dI-dC), 30 min room temperature; native gel 1X TBE; conditions: protein: commercial;commercial; tags: ;; copies: 1;1; label: IRDye-700 as probe; blunt
NRF1;MAFG [2] = molecular target: T2, NRF1;MAFG (Homo sapiens;Homo sapiens?, UniProt Q14494;O15525 1-772;1-162, |); assay: EMSA; TNT NRF1 2 ul/20 ul, 37.5 nM MAFG; unlabeled N1 also competes; 20 mM HEPES (pH not stated), 4 mM MgCl2, 20 mM KCl, 5 mM DTT, 1 mM EDTA, 100 ug/ml BSA, 4% glycerol, poly(dI-dC), 30 min room temperature; native gel 1X TBE; conditions: protein: ivt;commercial; tags: His (plasmid pPB-N-His-NRF1, abm PV028854);; copies: 1;1; label: IRDye-700 as probe; blunt
NRF2;MAFG [3] = molecular target: T3, NRF2;MAFG (Homo sapiens;Homo sapiens?, UniProt Q16236;O15525 1-605;1-162, |); assay: EMSA; 75 nM NRF2, 37.5 nM MAFG; unlabeled N1 also competes; 20 mM HEPES (pH not stated), 4 mM MgCl2, 20 mM KCl, 5 mM DTT, 1 mM EDTA, 100 ug/ml BSA, 4% glycerol, poly(dI-dC), 30 min room temperature; native gel 1X TBE; conditions: protein: recombinant;commercial; tags: His, Flag3 (plasmid pPROHEX-HC-Flag3-NRF2);; copies: 1;1; label: IRDye-700 as probe; blunt
NRF2;MAFG [4] = molecular target: T3, NRF2;MAFG; assay: competition EMSA; excess unlabeled vs labeled N1; 20 mM HEPES (pH not stated), 4 mM MgCl2, 20 mM KCl, 5 mM DTT, 1 mM EDTA, 100 ug/ml BSA, 4% glycerol, poly(dI-dC), 30 min room temperature; native gel 1X TBE; conditions: protein: recombinant;commercial; tags: His, Flag3 (plasmid pPROHEX-HC-Flag3-NRF2);; copies: 1;1; blunt
NRF1;MAFG [5] = molecular target: T2, NRF1;MAFG; assay: competition EMSA; unlabeled vs labeled N1; 20 mM HEPES (pH not stated), 4 mM MgCl2, 20 mM KCl, 5 mM DTT, 1 mM EDTA, 100 ug/ml BSA, 4% glycerol, poly(dI-dC), 30 min room temperature; native gel 1X TBE; conditions: protein: ivt;commercial; tags: His (plasmid pPB-N-His-NRF1, abm PV028854);; copies: 1;1; blunt
FOS;JUN [6] = molecular target: T1, FOS;JUN; assay: as above; conditions: protein: commercial;commercial; tags: ;; copies: 1;1; blunt
NRF1;MAFG [7] = molecular target: T2, NRF1;MAFG; assay: competition EMSA; unlabeled vs labeled N1; legend once says NRF2 for these lanes (apparent typo); 20 mM HEPES (pH not stated), 4 mM MgCl2, 20 mM KCl, 5 mM DTT, 1 mM EDTA, 100 ug/ml BSA, 4% glycerol, poly(dI-dC), 30 min room temperature; native gel 1X TBE; conditions: protein: ivt;commercial; tags: His (plasmid pPB-N-His-NRF1, abm PV028854);; copies: 1;1; blunt

T1 sequence (P01100 whole entry, chain 1 of 2): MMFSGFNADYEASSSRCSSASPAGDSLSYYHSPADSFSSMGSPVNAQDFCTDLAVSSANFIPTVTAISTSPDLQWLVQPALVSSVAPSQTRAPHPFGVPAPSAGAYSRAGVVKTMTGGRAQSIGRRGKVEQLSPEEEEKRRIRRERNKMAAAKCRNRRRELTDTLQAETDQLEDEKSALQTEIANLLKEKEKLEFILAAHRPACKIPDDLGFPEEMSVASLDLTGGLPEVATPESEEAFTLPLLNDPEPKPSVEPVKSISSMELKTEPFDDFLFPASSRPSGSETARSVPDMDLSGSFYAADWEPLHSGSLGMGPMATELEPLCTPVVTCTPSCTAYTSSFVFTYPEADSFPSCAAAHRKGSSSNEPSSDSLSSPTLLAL
T1 sequence (P05412 whole entry, chain 2 of 2): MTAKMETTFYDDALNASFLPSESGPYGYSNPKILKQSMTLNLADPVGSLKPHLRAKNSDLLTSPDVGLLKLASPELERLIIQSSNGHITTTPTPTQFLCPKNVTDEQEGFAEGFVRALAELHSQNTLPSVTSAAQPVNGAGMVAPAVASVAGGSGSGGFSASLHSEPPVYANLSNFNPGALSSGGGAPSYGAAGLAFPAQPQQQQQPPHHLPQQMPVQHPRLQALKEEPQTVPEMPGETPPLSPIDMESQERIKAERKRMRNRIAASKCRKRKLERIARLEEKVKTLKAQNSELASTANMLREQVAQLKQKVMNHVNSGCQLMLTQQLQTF

Row | Binder | binding result (FOS;JUN [1]) | binding result (NRF1;MAFG [2]) | binding result (NRF2;MAFG [3]) | binding result (NRF2;MAFG [4]) | binding result (NRF1;MAFG [5]) | binding result (FOS;JUN [6]) | binding result (NRF1;MAFG [7])
1 | NQO1 ARE WT (NQO1WT) (dsDNA) DNA 1: AATCCGCAGTCACAGTGACTCAGCAGAATCTGAGCCTAG DNA 2: CTAGGCTCAGATTCTGCTGAGTCACTGTGACTGCGGATT | binds | binds | binds |  |  |  | 
2 | MS4A6A ARE rs667897A (dsDNA) DNA 1: CTGCGCTCCAAACCCGCTGTGTCATACCATACCGGATGT DNA 2: ACATCCGGTATGGTATGACACAGCGGGTTTGGAGCGCAG |  |  |  | binds | binds | binds | 
3 | MS4A6A rs667897G (dsDNA) DNA 1: CTGCGCTCCAAACCCGCTGTGTCGTACCATACCGGATGT DNA 2: ACATCCGGTATGGTACGACACAGCGGGTTTGGAGCGCAG |  |  |  | no binding |  | no binding | 
4 | NQO1 ARE mutant (NQO1mut) (dsDNA) DNA 1: AATCCGCAGTCACAGACTCCTACGAGAATCTGAGCCTAG DNA 2: CTAGGCTCAGATTCTCGTAGGAGTCTGTGACTGCGGATT |  |  |  |  |  | no binding | no binding

Reference: paper PMC5705802, “A hypermorphic antioxidant response element is associated with increased MS4A6A expression and Alzheimer's disease”
